Assay in all cases: cell-based or functional assay
Assay [1] deals with PDGFRα (V561D) (h) (human) (UniProt P16234).
The target of assay [2] is DMPK (h) (human) (UniProt Q09013).
In assay [3] the target is T1, CHK1 (h) (human) (UniProt O14757).
T1 sequence (looked up): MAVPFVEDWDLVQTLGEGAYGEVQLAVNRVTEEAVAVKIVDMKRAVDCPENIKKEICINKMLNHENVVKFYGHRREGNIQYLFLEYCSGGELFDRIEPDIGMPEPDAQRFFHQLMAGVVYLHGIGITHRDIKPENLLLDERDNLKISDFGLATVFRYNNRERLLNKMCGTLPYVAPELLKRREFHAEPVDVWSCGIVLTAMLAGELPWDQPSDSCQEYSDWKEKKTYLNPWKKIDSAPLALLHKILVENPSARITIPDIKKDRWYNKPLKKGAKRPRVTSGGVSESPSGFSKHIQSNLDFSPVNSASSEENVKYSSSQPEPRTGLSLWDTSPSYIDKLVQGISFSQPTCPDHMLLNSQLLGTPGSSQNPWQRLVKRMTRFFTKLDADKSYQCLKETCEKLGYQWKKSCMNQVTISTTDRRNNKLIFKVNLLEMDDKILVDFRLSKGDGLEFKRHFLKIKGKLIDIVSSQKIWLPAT

In assay [4] the target is CHK2 (h) (human) (UniProt O96017).
Chain of CHK2 (h) (human) (O96017 5-543 limits assumed): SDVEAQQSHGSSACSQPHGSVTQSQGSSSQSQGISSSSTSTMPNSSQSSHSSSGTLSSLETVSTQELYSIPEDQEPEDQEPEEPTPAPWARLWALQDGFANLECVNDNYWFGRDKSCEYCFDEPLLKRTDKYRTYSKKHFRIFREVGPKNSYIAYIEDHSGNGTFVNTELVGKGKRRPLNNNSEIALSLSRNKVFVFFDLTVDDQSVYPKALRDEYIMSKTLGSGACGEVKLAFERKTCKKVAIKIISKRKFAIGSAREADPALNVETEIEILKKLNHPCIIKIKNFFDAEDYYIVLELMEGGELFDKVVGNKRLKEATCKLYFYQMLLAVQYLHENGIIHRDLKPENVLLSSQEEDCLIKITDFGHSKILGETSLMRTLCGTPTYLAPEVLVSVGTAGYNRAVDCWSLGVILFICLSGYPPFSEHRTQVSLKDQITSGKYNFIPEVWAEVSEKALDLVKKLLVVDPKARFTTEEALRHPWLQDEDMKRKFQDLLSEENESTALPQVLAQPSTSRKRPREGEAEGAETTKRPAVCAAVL
The target of assay [5] is Abl(Y253F) (h) (human) (UniProt P00519).
Chain of Abl(Y253F) (h) (human) (P00519 27-1130 Y253F limits assumed): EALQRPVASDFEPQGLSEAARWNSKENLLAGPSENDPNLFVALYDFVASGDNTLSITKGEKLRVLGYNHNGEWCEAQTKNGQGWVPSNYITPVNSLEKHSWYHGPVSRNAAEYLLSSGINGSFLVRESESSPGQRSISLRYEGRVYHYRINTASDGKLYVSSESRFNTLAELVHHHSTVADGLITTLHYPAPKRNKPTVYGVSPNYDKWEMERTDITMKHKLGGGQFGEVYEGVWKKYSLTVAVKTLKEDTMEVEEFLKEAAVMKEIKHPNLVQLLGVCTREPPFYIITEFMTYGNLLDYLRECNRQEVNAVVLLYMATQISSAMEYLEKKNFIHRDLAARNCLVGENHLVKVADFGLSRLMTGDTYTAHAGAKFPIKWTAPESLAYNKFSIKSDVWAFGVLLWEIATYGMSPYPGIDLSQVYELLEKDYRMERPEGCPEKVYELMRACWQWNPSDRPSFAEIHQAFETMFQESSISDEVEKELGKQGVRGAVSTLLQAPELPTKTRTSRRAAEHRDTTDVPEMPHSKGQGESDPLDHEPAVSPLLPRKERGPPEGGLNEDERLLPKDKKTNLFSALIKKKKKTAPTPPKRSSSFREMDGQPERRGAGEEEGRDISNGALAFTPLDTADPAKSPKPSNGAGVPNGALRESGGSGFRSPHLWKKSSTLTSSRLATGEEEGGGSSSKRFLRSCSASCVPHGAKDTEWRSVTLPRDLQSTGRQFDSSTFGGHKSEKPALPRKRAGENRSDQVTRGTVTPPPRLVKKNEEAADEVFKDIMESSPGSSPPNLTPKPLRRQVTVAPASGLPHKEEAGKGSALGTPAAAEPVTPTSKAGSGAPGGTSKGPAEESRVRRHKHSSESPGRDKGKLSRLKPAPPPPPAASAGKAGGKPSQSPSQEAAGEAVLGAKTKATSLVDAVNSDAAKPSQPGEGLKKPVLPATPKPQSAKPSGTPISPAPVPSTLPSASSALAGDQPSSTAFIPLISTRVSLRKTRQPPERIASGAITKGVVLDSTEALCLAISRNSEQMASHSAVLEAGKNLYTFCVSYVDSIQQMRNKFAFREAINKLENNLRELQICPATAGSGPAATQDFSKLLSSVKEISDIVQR
For assay [6], the target named is SAPK2a(T106M) (h) (human) (UniProt Q16539).
Chain of SAPK2a(T106M) (h) (human) (Q16539 whole entry T106M): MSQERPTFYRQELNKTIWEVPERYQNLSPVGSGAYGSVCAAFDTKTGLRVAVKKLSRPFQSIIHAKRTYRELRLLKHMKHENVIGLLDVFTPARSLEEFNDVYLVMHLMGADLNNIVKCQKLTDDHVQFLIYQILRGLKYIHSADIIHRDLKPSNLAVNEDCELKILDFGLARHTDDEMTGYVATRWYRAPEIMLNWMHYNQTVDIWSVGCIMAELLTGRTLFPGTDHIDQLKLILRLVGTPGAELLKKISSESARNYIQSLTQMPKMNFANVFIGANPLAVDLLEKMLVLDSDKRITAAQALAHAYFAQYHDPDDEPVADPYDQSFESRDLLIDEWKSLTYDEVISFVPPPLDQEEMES
Assay [7] concerns the target EGFR (h) (human) (UniProt P00533).
For assay [8], the target named is PDGFRα (h) (human) (UniProt P16234).
Chain of PDGFRα (h) (human) (P16234 550-1089 limits assumed): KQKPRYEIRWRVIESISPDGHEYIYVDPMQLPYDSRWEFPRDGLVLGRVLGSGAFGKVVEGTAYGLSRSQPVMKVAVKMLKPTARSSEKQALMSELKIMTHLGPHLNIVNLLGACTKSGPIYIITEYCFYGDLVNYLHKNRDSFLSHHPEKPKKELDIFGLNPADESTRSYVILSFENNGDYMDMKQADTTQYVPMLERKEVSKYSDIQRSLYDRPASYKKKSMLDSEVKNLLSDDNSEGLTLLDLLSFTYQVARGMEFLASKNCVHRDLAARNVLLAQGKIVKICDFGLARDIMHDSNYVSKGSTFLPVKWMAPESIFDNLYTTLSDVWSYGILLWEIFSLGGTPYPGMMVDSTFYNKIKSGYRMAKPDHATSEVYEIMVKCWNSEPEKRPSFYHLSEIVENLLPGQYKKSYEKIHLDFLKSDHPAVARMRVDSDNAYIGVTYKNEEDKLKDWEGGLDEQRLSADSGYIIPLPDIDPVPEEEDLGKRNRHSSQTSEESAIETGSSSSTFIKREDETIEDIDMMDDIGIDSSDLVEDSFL
Assay [9] addresses CHK2(I157T) (h) (human) (UniProt O96017).
The target of assay [10] is T2, NEK2 (h) (human) (UniProt P51955).
T2 sequence (looked up): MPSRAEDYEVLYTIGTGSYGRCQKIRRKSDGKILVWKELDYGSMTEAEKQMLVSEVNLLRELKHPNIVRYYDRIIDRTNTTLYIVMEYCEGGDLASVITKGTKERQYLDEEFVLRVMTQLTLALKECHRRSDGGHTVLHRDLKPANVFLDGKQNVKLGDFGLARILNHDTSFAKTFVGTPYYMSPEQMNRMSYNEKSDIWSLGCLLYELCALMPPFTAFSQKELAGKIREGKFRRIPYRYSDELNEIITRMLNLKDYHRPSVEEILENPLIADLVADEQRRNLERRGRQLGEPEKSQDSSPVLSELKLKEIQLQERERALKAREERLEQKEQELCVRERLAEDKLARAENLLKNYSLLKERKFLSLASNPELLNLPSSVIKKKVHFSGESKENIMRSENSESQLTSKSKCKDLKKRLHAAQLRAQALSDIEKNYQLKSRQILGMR

Assay [11] has as its target IGF-1R (h), activated (human) (UniProt P08069).
Assay [12] concerns the target CK1δ (h) (human) (UniProt P48730).
For assay [13], the target named is SIK (h) (human) (UniProt P57059).
The target of assay [14] is T3, IKKβ (h) (human) (UniProt O14920).
T3 sequence (looked up): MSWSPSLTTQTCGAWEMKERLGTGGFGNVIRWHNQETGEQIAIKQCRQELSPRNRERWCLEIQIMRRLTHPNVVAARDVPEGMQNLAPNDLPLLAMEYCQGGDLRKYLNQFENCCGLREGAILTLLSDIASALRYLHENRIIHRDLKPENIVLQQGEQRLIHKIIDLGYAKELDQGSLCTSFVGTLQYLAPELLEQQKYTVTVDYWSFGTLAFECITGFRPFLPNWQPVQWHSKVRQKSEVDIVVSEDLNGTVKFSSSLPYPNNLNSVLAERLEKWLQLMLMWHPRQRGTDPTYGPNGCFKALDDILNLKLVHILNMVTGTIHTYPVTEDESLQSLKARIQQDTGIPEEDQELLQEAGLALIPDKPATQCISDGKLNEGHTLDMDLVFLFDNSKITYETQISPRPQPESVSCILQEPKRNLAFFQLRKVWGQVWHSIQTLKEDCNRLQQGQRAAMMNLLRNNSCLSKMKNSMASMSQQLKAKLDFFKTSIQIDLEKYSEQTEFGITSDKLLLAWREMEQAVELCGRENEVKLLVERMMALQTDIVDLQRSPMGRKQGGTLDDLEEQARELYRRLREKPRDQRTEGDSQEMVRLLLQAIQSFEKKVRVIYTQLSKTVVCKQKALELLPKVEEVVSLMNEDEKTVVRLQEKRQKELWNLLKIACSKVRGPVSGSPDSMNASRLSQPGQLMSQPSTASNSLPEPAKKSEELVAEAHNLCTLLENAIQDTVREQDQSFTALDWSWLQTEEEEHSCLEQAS

Assay [15] deals with AMPKα1 (h) (human) (UniProt Q13131).
Assay [16] has as its target AMPKα2 (h) (human) (UniProt P54646).

Chain of CHK2(I157T) (h) (human) (O96017 5-543 I157T limits assumed): as the sequence (O96017 5-543 limits assumed) above, with I153T counted along it
Chain of PDGFRα (V561D) (h) (human) (P16234 550-1089 V561D limits assumed): as the sequence (P16234 550-1089 limits assumed) above, with V12D counted along it
Chain of IGF-1R (h), activated (human) (P08069 959-1367 limits assumed): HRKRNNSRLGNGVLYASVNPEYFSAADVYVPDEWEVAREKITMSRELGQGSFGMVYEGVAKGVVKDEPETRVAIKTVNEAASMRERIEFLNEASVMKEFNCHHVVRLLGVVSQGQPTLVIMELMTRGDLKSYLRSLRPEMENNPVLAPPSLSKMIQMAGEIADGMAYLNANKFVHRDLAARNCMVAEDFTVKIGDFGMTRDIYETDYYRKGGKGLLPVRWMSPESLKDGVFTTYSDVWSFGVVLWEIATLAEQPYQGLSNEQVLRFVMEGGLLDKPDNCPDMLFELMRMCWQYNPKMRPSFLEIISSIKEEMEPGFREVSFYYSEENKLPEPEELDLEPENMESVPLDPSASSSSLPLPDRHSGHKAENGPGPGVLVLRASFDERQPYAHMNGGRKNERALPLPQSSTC

As for MMI-0300 (peptide), the % activity at 100 µM in [1] worked out at 82%; in assay [2] it was 59%; in assay [3], 91%; in assay [4] it was 66%; in assay [5], 86%; in assay [6], 97%. The % activity at 100 µM stood at 21% in assay [7]; 65% in assay [8]; 43% in [9]; 78% in [10]; 80% in assay [11]; 92% in assay [12]. In addition, the % activity at 100 µM came out at 66% in assay [13], 84% in assay [14], 71% in assay [15] and 54% in [16].

For the origin of these results see patent publication US20160136234A1.
